From patent US20230002466A1 (ELPIS BIOPHARMACEUTICALS, published 2023) come the findings set out here.

Assay [1] addresses T1, human IL2Rα Fc fusion protein (human, UniProt P01589 22-213, limits assumed).
T1 construct: also called Recombinant Fc-tagged human IL2Rα; not shown: Fc
T1 sequence (looked up): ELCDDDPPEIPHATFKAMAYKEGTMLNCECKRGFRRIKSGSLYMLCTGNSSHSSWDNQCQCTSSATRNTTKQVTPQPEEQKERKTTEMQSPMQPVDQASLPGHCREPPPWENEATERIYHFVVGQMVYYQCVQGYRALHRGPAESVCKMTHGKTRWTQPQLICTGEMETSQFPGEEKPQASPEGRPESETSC
As to the kind of experiment: ELISA, receptor-Fc coated, anti-Flag HRP. The method, then: (§1) Briefly, 384 well plate was immobilized with human IL2Rα and IL2Rβ Fc fusion proteins at a final concentration of 2 ug/mL in 1×PBS in total volume of 25 uL per well. The plate was incubated overnight at 4 C and blocked with 80 uL of superblock per well for 1 hour. […] Each dilution was added to IL2Rα or IL2Rβ wells in parallel in duplicates. The IL2 mutant binding was detected by adding 25 uL of anti-Flag HRP diluted at 1:5000 in 1×PBST. In between each step, the plate was washed three times with 1×PBST using a plate washer. The plate was then developed with 25 uL of TMB substrate for five minutes and stopped by adding 25 ul of 2N sulfuric acid. The plate was read at OD450 nm Biotek plate reader and the EC50 was analyzed with Prism 8.1 software to generate EC50 values (FIG. 15A for IL2Rα, and FIG. 15B for IL2Rβ, summarized in Table 9).

Assay [2] has as its target T2, human IL2Rβ Fc fusion protein (human, UniProt P14784 27-239).
T2 construct: also called Recombinant Fc-tagged human IL2Rβ; not shown: Fc
T2 sequence (looked up): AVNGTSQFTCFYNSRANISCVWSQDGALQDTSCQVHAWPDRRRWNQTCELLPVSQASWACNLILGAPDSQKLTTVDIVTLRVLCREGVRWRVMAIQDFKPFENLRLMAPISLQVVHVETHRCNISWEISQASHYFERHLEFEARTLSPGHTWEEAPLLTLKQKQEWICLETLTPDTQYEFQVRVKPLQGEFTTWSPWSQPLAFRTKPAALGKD
As to the kind of experiment: ELISA, receptor-Fc coated, anti-Flag HRP. The method, then: as §1
A general note: An ELISA detects its analyte on a solid surface through an enzyme-linked reagent.

For assay [3], the target named is T1, human IL2Rα Fc fusion protein. As to the kind of experiment: ELISA, single point, Fc-tagged human IL2Rα coated, anti-His-HRP; concentration not printed (Example 14). The method, then:
(§2) Recombinant Fc-tagged human IL2Rα and IL2Rβ were added in 25 uL of 1×PBS to wells of 384-well plate and incubated overnight at 4° C. to coat the plates. Plates were washed three times with 0.05% Tween20/1×PBS. Plates were blocked with 100 uL of SuperBlock for 1 hr at RT and then washed 3 times with 0.05% Tween20/1×PBS. IL2 mutants were diluted in 0.05% Tween 20/1×PBS from 1000 nM to 0 nM and added to plates for 2 hrs at room temperature. Plates were then washed 6 times with 0.05% Tween20/1×PBS. Anti-HisTag-HRP was diluted 1:5000 in 0.05% Tween20/1×PBS and added to plates for 1 hr at RT. Plates were then washed 6 times with 0.05% Tween 20/1×PBS, and TMB was added to develop blue color. Reactions were stopped with 2N […] and light absorbance at 450 nm was read on a BioTek plate reader.

Assay [4] has as its target T2, human IL2Rβ Fc fusion protein. As to the kind of experiment: ELISA, Fc-tagged receptor coated, anti-HisTag-HRP. On the procedure: as §2
The target in a further assay is T3, human IL2Rβ (human, UniProt P14784 27-239).
T3 construct: also called IL2β; CD122
T3 sequence (looked up): T2 sequence (looked up)
As to the kind of experiment: SPR, IL2Rβ captured on Protein A chip. On the procedure: Kinetic analysis of the receptor binding activities of IL2Rβ agonist with IL2Rα reduced activity mutations have been assessed by SPR technology with Biacore T200. The assay was run with Biacore T200 control software version 2.0. For each cycle, 1 ug/mL of human IL2Rβ was captured for 60 seconds at flow rate of 10 ul/min on flow cell 2 in 1×HBSP buffer on Protein A sensor chip. 100 nM of HIS and Flag tag purified each IL2 mutant was 2 fold serial diluted and injected onto both reference flow cell 1 and IL2Rβ captured flow cell 2 for 150 seconds at flow rate of 30 ul/mins followed by wash for 300 seconds. The flow cells were then regenerated with Glycine pH2 for 60 seconds at flow rate of 30 ul/mins. The assay was set up with 8 serial diluted concentration points in 96 well format. The kinetics data was analyzed with Biacore T200 evaluation software 3.0. The specific binding response unit was derived from subtraction of binding to reference flow cell 1 from target flow cell 2.
A general note: Surface plasmon resonance follows binding to a sensor surface in real time, without labels.

Where a chain is given by its changes, count along the chain named.

What is called EC50 is the concentration giving half of the maximal effect. Higher therefore signals a need for much substance. For orientation: Kd means the free concentration of one partner at which half of the binding sites on the other are occupied at equilibrium, for simple one-to-one binding. For orientation: koff means a measure of how fast the partners let go of each other. The kon is a measure of how fast the partners come together. Low readings indicate slow association, high ones fast association.

B1: EP250 (ligand)
chain: APTSSSTKKTQLQLEHLLLDLQMILNGINNYKNPKLTRMLTFKFYMPKKATELKHLQCLEEELKPLEEVLNLAQSKNFHLTPRDAISNIRVIIQELKGSETTFMCEYADETATIVEFLNRWITFCQSIISTLT
notes: not shown: His and Flag tags
With B1, the EC50 stood at 13.2 nM in assay [1] and 23.4 nM in assay [2].

B2: EP334 (ligand)
chain: B1 chain with K35S, F42G, P82A, R90N
notes: not shown: His and Flag tags
B2: in assay [3], the binding result is recorded as “no binding (tested: not printed)”. Moreover, a half-maximal response in assay [4] (EC50) required 28.6 nM.

B3: EP331 (ligand)
chain: B1 chain with K35G, R38E, S87D, I93V
notes: not shown: His and Flag tags
For the molecule B3, in assay [3], the binding result was “no binding (tested: not printed)”. The molecule further displayed an EC50 in assay [4] of 39.3 nM.

B4: EP336 (ligand)
chain: B1 chain with K35S, F42G, S87D, Q94L
notes: not shown: His and Flag tags
For B4, in assay [3], the binding result is on record as “no binding (tested: not printed)”. Also, it took 133 nM to reach a half-maximal effect in assay [4] (EC50).

B5: EP335 (ligand)
chain: B1 chain with K35S, F42G, S87D, I93V
notes: not shown: His and Flag tags
In the case of B5, the binding result in assay [3] is on record as “no binding (tested: not printed)”. Also, it took 59.1 nM to reach a half-maximal effect in assay [4] (EC50).

B6: EP261 (ligand)
chain: B1 chain with P82A, S87D, R90N, I93V
notes: not shown: His and Flag tags
As for B6, the results for the EC50 in assay [1] and in assay [2] were 2.9 nM and 124 nM, respectively.

B7: EP411 (ligand)
chain: APTSSSTKKTQLQLEHLLLDLQMILNGINNYKNPKLTVMLTFKFSMPKKATELKHLQCLEEELKPLEEVLNLAQSKNFHLGVTDSISNAIVLARELKGSETTFMCEYADETATIVEFLNRWITFCQSIISTLT
notes: not shown: His and Flag tags
B7: in the assay with human IL2Rβ, the Kd stood at 0.461 nM, the off-rate (koff) turned out to be 0.000839 s⁻¹ and the kon was found to be 1.82e+06 M⁻¹ s⁻¹.

B8: EP251 (ligand)
chain: B1 chain with S87D, R90N
notes: not shown: His and Flag tags
For the molecule B8, the EC50 came to 16.8 nM in assay [1] and 2.5 nM in assay [2].

B9: EP256 (ligand)
chain: B1 chain with P82A, A85L, S87D, I93V
notes: not shown: His and Flag tags
Regarding B9, the EC50 in assay [1] stood at 5.3 nM; in assay [2], 362 nM.

B10: EP254 (ligand)
chain: B1 chain with P82A, A85L
notes: not shown: His and Flag tags
Regarding B10, the EC50 in assay [1] turned out to be 4.3 nM; in assay [2], 556 nM.

B11: EP332 (ligand)
chain: B1 chain with K35G, R38E, S87D, Q94L
notes: not shown: His and Flag tags
Turning to B11, the binding result in assay [3] is on record as “no binding (tested: not printed)”. This molecule also showed an EC50 in assay [4] of 44 nM.

B12: EP255 (ligand)
chain: B1 chain with P82A, A85L, S87D, R90N
notes: not shown: His and Flag tags
In the case of B12, the EC50 in assay [1] amounted to 4.3 nM; in assay [2] it was 360 nM.

B13: EP342 (ligand)
chain: B1 chain with R38D, Y45S, P82A, R90N
notes: not shown: His and Flag tags
With B13, the binding result in assay [3] is recorded as “no binding (tested: not printed)”. For the same molecule, in assay [4], a half-maximal response (EC50) required 58.9 nM.

B14: EP410 (ligand)
chain: B1 chain with R38V, Y45S, P82A, I86V, S87D, I89M
notes: not shown: His and Flag tags
With B14, in the assay with human IL2Rβ, the Kd was found to be 0.827 nM, the koff was found to be 0.00594 s⁻¹ and the kon amounted to 7.19e+06 M⁻¹ s⁻¹.

B15: EP330 (ligand)
chain: B1 chain with K35G, R38E, P82A, R90N
notes: not shown: His and Flag tags
For B15, the binding result in assay [3] is reported as “no binding (tested: not printed)”.

B16: EP262 (ligand)
chain: B1 chain with P82A, S87D, R90N, Q94L
notes: not shown: His and Flag tags
Take B16: the EC50 in assay [1] amounted to 32.1 nM; in assay [2], 53.2 nM.
